Measured values taken from PMC4656143.

Target: opto-DN-CREB
Test: thermal relaxation kinetics

B1: CREB-bZIP (domain or fragment)
chain: ARKREVRLMKNREAARECRRKKKEYVKCLENRVAVLENQNKTLIEELKALKDLYCHKSD
B1 was tested. Which stoichiometry N did it give?
The stoichiometry N was 1.
